Measurements from IntAct's records for PubMed 18957540.

Target: ntrk2_rat Ntrk2 (UniProt Q63604)
Sequence (Q63604 whole entry): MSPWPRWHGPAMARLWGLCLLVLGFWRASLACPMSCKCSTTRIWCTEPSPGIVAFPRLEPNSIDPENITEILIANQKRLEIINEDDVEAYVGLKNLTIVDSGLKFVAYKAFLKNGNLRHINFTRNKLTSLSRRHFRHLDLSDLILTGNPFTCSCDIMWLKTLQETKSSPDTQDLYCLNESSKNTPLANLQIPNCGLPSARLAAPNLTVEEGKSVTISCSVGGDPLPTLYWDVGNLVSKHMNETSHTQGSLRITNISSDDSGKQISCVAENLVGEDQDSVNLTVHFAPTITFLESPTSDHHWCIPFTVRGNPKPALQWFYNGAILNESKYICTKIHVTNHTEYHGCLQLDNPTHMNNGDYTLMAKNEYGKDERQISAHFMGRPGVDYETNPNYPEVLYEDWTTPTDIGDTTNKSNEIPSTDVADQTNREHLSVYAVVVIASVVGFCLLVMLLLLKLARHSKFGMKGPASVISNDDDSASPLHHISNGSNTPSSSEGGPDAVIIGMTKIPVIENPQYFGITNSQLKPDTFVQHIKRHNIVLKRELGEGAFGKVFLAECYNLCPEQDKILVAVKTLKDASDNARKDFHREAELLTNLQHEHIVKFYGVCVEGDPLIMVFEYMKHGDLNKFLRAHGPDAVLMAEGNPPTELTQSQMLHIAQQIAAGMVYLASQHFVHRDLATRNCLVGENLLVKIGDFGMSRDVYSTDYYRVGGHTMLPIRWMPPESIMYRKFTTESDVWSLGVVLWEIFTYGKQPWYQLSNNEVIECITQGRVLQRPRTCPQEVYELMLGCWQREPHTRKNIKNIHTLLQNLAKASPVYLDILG

effect of a mutation on the interaction: decreasing interaction strength
Substance: Protein farnesyltransferase/geranylgeranyltransferase type-1 subunit alpha (Rattus norvegicus (Rat)) (from UniProt Q04631) Y166A
